Patent US20030124530 (Genelabs Technologies, Inc., published 2003)

Assays:
[1] = target: T1, UL9-COOH (C-terminal DNA-binding fragment of UL9) (Herpes simplex virus 1, UniProt P10193 P10193:535-851); experiment: EMSA; flanks have little effect on off-rate; particularly disrupted by doxorubicin; conditions: tags: GST fusion from pGEX-2T, thrombin-cleaved; E. coli JM109; bacterial extracts also used; label: 32P
[2] = target: T1, UL9-COOH (C-terminal DNA-binding …); experiment: EMSA; flanks have little effect on off-rate; disrupted by distamycin A and doxorubicin; conditions: tags: GST fusion from pGEX-2T, thrombin-cleaved; E. coli JM109; bacterial extracts also used; label: 32P
[3] = target: T1, UL9-COOH (C-terminal DNA-binding …); experiment: EMSA; flanks have little effect on off-rate; conditions: tags: GST fusion from pGEX-2T, thrombin-cleaved; E. coli JM109; bacterial extracts also used; label: 32P
[4] = target: T1, UL9-COOH (C-terminal DNA-binding …); experiment: competition; unlabelled competitor in dissociation assay; conditions: tags: GST fusion from pGEX-2T, thrombin-cleaved; E. coli JM109; bacterial extracts also used
[5] = target: T1, UL9-COOH (C-terminal DNA-binding …); experiment: EMSA; flanks have little effect on off-rate; disrupted by actinomycin D and doxorubicin; conditions: tags: GST fusion from pGEX-2T, thrombin-cleaved; E. coli JM109; bacterial extracts also used; label: 32P
[6] = target: T1, UL9-COOH (C-terminal DNA-binding …); experiment: EMSA; flanks have little effect on off-rate; disrupted by doxorubicin; conditions: tags: GST fusion from pGEX-2T, thrombin-cleaved; E. coli JM109; bacterial extracts also used; label: 32P
[7] = target: T1, UL9-COOH (C-terminal DNA-binding …); experiment: EMSA; flanks have little effect on off-rate; disrupted by distamycin A; conditions: tags: GST fusion from pGEX-2T, thrombin-cleaved; E. coli JM109; bacterial extracts also used; label: 32P
[8] = target: T1, UL9-COOH (C-terminal DNA-binding …); experiment: EMSA; flanks have little effect on off-rate; filter binding same; disrupted by actinomycin D; conditions: tags: GST fusion from pGEX-2T, thrombin-cleaved; E. coli JM109; bacterial extracts also used; label: 32P

T1 sequence (P10193 535-851, one chain of several): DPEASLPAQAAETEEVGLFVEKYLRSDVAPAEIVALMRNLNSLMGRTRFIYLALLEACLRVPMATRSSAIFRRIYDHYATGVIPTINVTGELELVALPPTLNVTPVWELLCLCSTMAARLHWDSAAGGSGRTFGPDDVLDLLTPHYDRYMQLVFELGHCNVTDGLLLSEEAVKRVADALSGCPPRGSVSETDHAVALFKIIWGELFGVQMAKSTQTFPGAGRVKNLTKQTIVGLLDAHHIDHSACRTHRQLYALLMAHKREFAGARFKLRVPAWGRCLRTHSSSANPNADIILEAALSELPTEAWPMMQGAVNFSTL

B1: oriEco3 (dsDNA)
DNA 1: GGCGAATTCGATCGTTCGCACTTCGTCCCAAT
DNA 2: ATTGGGACGAAGTGCGAACGATCGAATTCGCC
B1: binds [1].

B2: UL9 polyT (dsDNA)
DNA 1: GGTTTTTTTCGTTCGCACTTTTTTTTTTGG
DNA 2: CCAAAAAAAAAAGTGCGAACGAAAAAAACC
B2: binds [2].

B3: ATori1 (dsDNA)
DNA 1: GCGTATATATCGTTCGCACTTCGTCCCAAT
DNA 2: ATTGGGACGAAGTGCGAACGATATATACGC
B3: binds [3].

B4: FIG. 5 oligo SEQ ID NO:610 (dsDNA)
DNA 1: GGACGCACGCGTTCGCACTTGCAGCAGCGG
DNA 2: CCGCTGCTGCAAGTGCGAACGCGTGCGTCC
B4: binds [3].

B5: 17 bp UL9 competitor (dsDNA)
DNA 1: GGTCGTTCGCACTTCGC
DNA 2: GCGAAGTGCGAACGACC
B5: binds [4].

B6: UL9 GGGC (dsDNA)
DNA 1: GGCGGGCGCCGTTCGCACTTGGGCGGGCGG
DNA 2: CCGCCCGCCCAAGTGCGAACGGCGCCCGCC
B6: binds [5].

B7: oriEco2 (dsDNA)
DNA 1: GGCGAATTCGACGTTCGCACTTCGTCCCAAT
DNA 2: ATTGGGACGAAGTGCGAACGTCGAATTCGCC
B7: binds [6].

B8: UL9 polyA (dsDNA)
DNA 1: GGAAAAAAACGTTCGCACTTAAAAAAAAGG
DNA 2: CCTTTTTTTTAAGTGCGAACGTTTTTTTCC
B8: binds [7].

B9: UL9 CCCG (dsDNA)
DNA 1: GGCCCGCCCCGTTCGCACTTCCCGCCCCGG
DNA 2: CCGGGGCGGGAAGTGCGAACGGGGCGGGCC
B9: binds [8].

B10: UL9 ATAT (dsDNA)
DNA 1: GGATATATACGTTCGCACTTTAATTATTGG
DNA 2: CCAATAATTAAAGTGCGAACGTATATATCC
B10: binds [7].
